Reference: publication PMC12412624, “Engineered Cas12j‐8 is a Versatile Platform for Multiplexed Genome Modulation in Mammalian Cells”
Numbering of substitutions follows the chain as printed.

Legend:
[1] = tested on: T1, dCas12j-8 E258R+D527R E258R;D527R;D369A;E567A;D658A (bacteriophage (metagenome)); settings: HEK293T cells; panel 1d (compare within a panel only); scale: mean GFP / mean GFP of wild type, printed, no background subtraction
T1 sequence: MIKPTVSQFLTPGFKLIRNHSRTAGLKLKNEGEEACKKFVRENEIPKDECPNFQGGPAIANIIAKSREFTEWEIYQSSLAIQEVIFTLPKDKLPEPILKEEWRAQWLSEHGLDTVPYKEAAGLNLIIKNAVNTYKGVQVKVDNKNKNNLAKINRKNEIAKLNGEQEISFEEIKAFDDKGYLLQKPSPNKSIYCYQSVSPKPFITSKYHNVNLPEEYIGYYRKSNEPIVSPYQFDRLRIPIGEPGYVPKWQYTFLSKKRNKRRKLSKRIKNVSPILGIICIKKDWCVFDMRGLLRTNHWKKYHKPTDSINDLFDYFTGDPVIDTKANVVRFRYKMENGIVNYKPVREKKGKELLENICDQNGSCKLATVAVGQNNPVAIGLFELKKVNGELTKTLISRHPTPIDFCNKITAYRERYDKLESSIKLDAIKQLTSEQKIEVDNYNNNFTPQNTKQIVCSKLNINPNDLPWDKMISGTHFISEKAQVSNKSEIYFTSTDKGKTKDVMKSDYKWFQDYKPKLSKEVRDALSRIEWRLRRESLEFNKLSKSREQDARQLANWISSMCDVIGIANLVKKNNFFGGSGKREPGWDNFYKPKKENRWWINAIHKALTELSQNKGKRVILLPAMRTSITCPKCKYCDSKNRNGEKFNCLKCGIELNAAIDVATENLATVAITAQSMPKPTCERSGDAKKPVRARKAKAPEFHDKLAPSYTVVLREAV

[2] = tested on: T2, dCas12j-8 E119R E119R;D369A;E567A;D658A (bacteriophage (metagenome)); settings: HEK293T cells; panel 1c (compare within a panel only); scale: mean GFP / mean GFP of wild type, printed, no background subtraction
T2 sequence: T1 sequence with E119R, R258E, R527D

[3] = tested on: T3, dCas12j-8 E258R+E157R E258R;E157R;D369A;E567A;D658A (bacteriophage (metagenome)); settings: HEK293T cells; panel 1d (compare within a panel only); scale: mean GFP / mean GFP of wild type, printed, no background subtraction
T3 sequence: T1 sequence with E157R, R527D

Sequence: CUUUCAAGACUAAUAGAUUGCUCCUUACGAGGAGACACUCCCUAUCAGUGAUAGAG / TTNACTCCCTATCAGTGATAGAG / CTCTATCACTGATAGGGAGTNAA [TetO]
- binding signal [1]: 2.83
- binding signal [2]: 1.08
- binding signal [3]: 2.16
